Read-outs that look alike come from different tables or passages of the source.
Tests used:
[1] = target: native firefly luciferase (Photinus pyralis, UniProt P08659); settings: cited from earlier work
LucPpe2m146 = format: biochemical, Photuris pennsylvanica; settings: for Half life: buffer; for Average rlu: 37° C.
Procedure: The stability of a reagent composition composition comprising LucPpe2 luciferase was compared to a reagent composition comprising LucPpe2m90 and a reagent composition comprising LucPpe2m146, in the presence and absence of 0.1% DTAB. These mutant luciferases are thermostable; they are described in detail in PCT application PCT/US99/30925, filed Dec. 22, 1999.
Each enzyme was diluted to 0.05 mg/ml to a final volume of 1.0 ml in either 25 mM HEPES, pH 8.0 or 20 mM citrate, pH 6.0; both with 100 mM NaCl, 1 mM EDTA, 0.1% gelatin and 5% glycerol. In half of the samples, 0.1% DTAB was added. The enzyme solutions (“reagent compositions”) were incubated at 37° C.
At various timepoints, 10 μl of enzyme solution was transferred to a 96-well luminometer plate in triplicate. Then, in triplicate, 100 μl room temperature luciferase assay reagent (1 mM luciferin, 0.2 mM ATP, 10 MM MgSO4 in 50 mM HEPES, pH 8.0) was added to each 10 μl enzyme solution aliquot, mixed and immediately read in a Dynex MLX microtiter plate luminometer. The ATP in the luciferase assay reagent is at a saturating concentration. The average rlu values are reported, as are the half lives of the reagent composition activity as measured by luminescence (Table P). Half-life was calculated using the formula log (0.5)/slope of the data plotted as time (x axis) versus log value of rlu. The time zero is actually about 2-3 minutes after the mixing of enzyme and substrate; this could account for the lower numbers in the presence of DTAB at time 0 than in the absence of DTAB.

Sequence of native firefly luciferase (P08659 whole entry): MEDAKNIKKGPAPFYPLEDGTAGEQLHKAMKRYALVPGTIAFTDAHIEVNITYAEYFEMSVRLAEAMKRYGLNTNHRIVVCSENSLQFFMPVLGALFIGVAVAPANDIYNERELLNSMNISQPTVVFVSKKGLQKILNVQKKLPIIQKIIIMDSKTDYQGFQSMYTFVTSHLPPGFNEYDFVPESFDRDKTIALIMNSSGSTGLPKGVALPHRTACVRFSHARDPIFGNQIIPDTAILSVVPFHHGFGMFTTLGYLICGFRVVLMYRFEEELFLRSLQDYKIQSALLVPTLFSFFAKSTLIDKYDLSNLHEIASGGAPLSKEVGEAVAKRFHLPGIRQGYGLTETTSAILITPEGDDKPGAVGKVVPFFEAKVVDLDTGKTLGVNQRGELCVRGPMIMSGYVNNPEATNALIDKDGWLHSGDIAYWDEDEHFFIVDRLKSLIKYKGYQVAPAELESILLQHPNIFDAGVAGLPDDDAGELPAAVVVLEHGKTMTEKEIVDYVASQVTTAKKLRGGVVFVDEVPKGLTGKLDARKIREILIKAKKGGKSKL

## Cc1cc(C(C)(C)CC(C)(C)C)ccc1OCCOCC[N+](C)(C)Cc1ccccc1.[Cl-] [methylbenzethonium chloride]
[1]
  effect on native firefly luciferase: inactivated

## benzalkonium chloride
[1]
  effect on native firefly luciferase: inactivated

B1: LucPpe2m146: mutant luciferase derived from LucPpe2, SEQ ID NO:4 (protein)
chain: MADKNILYGPEPFYPLEDGTAGEQMFDALSRYAAIPGCIALTNAHTKENVLYEEFLKLSCRLAESFKKYGLKQNDTIAVCSENSLQFFLPVIASLYLGIIVAPVNDKYIERELIHSLGIVKPRIVFCSKNTFQKVLNVKSKLKSIETIIILDLNEDLGGYQCLNNFISQNSDSNLDVKKFKPYSFNRDDQVASIMFSSGTTGLPKGVMLTHKNIVARFSIAKDPTFGNAINPTSAILTVIPFHHGFGMMTTLGYFTCGFRVVLMHTFEEKLFLQSLQDYKVESTLLVPTLMAFLAKSALVEKYDLSHLKEIASGGAPLSKEIGEMVKKRFKLNFVRQGYGLTETTSAVLITPKGDAKPGSTGKIVPLHAVKVVDPTTGKILGPNEPGELYFKGPMIMKGYYNNEEATKAIIDNDGWLRSGDIAYYDNDGHFYIVDRLKSLIKYKGYQVAPAEIEGILLQHPYIVDAGVTGIPDEAAGELPAAGVVVQTGKYLNEQIVQDYVASQVSTAKWLRGGVKFLDEIPKGSTGKIDRKVLRQMLEKHTNG
modifications: Mutant of LucPpe2 luciferase
LucPpe2m146; pH 6
  Half life: 13.68 h
LucPpe2m146; pH 8
  Half life: 9.925 h
LucPpe2m146; pH 6.0 + 0.1% DTAB, 0 min
  Average rlu: 5945.34 rlu
LucPpe2m146; pH 6.0 + 0.1% DTAB, 61 min
  Average rlu: 5989.65 rlu
LucPpe2m146; pH 6.0 + 0.1% DTAB, 125 min
  Average rlu: 3754.71 rlu
LucPpe2m146; pH 6.0 + 0.1% DTAB, 183 min
  Average rlu: 4839.58 rlu
LucPpe2m146; pH 6.0 + 0.1% DTAB, 237 min
  Average rlu: 4951.0 rlu
LucPpe2m146; pH 6.0, 0 min
  Average rlu: 7685.01 rlu
LucPpe2m146; pH 6.0, 61 min
  Average rlu: 7077.29 rlu
LucPpe2m146; pH 6.0, 125 min
  Average rlu: 5507.01 rlu
LucPpe2m146; pH 6.0, 183 min
  Average rlu: 6144.94 rlu
LucPpe2m146; pH 6.0, 237 min
  Average rlu: 6471.76 rlu
LucPpe2m146; pH 8.0 + 0.1% DTAB, 0 min
  Average rlu: 6445.57 rlu
LucPpe2m146; pH 8.0 + 0.1% DTAB, 61 min
  Average rlu: 6214.56 rlu
LucPpe2m146; pH 8.0 + 0.1% DTAB, 125 min
  Average rlu: 4018.92 rlu
LucPpe2m146; pH 8.0 + 0.1% DTAB, 183 min
  Average rlu: 4020.56 rlu
LucPpe2m146; pH 8.0 + 0.1% DTAB, 237 min
  Average rlu: 3734.59 rlu
LucPpe2m146; pH 8.0, 0 min
  Average rlu: 6652.84 rlu
LucPpe2m146; pH 8.0, 61 min
  Average rlu: 6577.91 rlu
LucPpe2m146; pH 8.0, 125 min
  Average rlu: 5192.73 rlu
LucPpe2m146; pH 8.0, 183 min
  Average rlu: 5476.86 rlu
LucPpe2m146; pH 8.0, 237 min
  Average rlu: 5174.22 rlu

From patent US20030104507A1, “Method for detection of ATP” (priority 2001, published 2003)
